Measurements reported in PMC11963670.

Experiments:
[1] = target: RHDV GI.1b P domain of VP60, MBP fusion (rabbit hemorrhagic disease virus GI.1b (isolate RHDV-Ast89)); test: native gel or EMSA; nondenaturing PAGE of the MBP-P domain fusions, western blot with an anti-His tag monoclonal antibody; monomer band (calculated 85 kDa) and a slower band of the dimer
[2] = target: RHDV GI.2 P domain loop-swap mutant L1´ (loop 1 of GI.1b), His-tagged MBP fusion (rabbit hemorrhagic disease virus GI.2 (isolate N-11)); test: as above
[3] = target: RHDV GI.2 P domain loop-swap mutant L1´L4´ (loops 1 and 4 of GI.1b), His-tagged MBP fusion (rabbit hemorrhagic disease virus GI.2 (isolate N-11)); test: as above
[4] = target: RHDV GI.2 P domain loop-swap mutant L1´L4´L5´ (loops 1, 4 and 5 of GI.1b), His-tagged MBP fusion (rabbit hemorrhagic disease virus GI.2 (isolate N-11)); test: as above
[5] = target: RHDV GI.2 P domain loop-swap mutant L2´ (loop 2 of GI.1b), His-tagged MBP fusion (rabbit hemorrhagic disease virus GI.2 (isolate N-11)); test: as above
[6] = target: RHDV GI.2 P domain loop-swap mutant L3´ (loop 3 of GI.1b), His-tagged MBP fusion (rabbit hemorrhagic disease virus GI.2 (isolate N-11)); test: as above
[7] = target: RHDV GI.2 P domain loop-swap mutant L4´ (loop 4 of GI.1b), His-tagged MBP fusion (rabbit hemorrhagic disease virus GI.2 (isolate N-11)); test: as above
[8] = target: RHDV GI.2 P domain loop-swap mutant L4´L5´ (loops 4 and 5 of GI.1b), His-tagged MBP fusion (rabbit hemorrhagic disease virus GI.2 (isolate N-11)); test: as above
[9] = target: RHDV GI.2 P domain loop-swap mutant L5´ (loop 5 of GI.1b), His-tagged MBP fusion (rabbit hemorrhagic disease virus GI.2 (isolate N-11)); test: as above
[10] = target: RHDV GI.2 P domain mutant N387A, MBP fusion (rabbit hemorrhagic disease virus GI.2 (isolate N-11)); test: native gel or EMSA; PAGE under denaturing or native conditions of the MBP-P domain point mutants; monomer and homodimer bands; BSA as negative control
[11] = target: RHDV GI.2 P domain mutant N387D, MBP fusion (rabbit hemorrhagic disease virus GI.2 (isolate N-11)); test: as above
[12] = target: RHDV GI.2 wild-type P domain of VP60 (isolate N-11), His-tagged MBP fusion (rabbit hemorrhagic disease virus GI.2 (isolate N-11)); test: native gel or EMSA; nondenaturing PAGE of the MBP-P domain fusions, western blot with an anti-His tag monoclonal antibody; monomer band (calculated 85 kDa) and a slower band of the dimer

RHDV GI.1b P domain of VP60, MBP fusion (domain or fragment)
stoichiometry N [1]: 2

RHDV GI.2 P domain loop-swap mutant L1´ (loop 1 of GI.1b), His-tagged MBP fusion (domain or fragment)
stoichiometry N [2]: 2

RHDV GI.2 P domain loop-swap mutant L1´L4´ (loops 1 and 4 of GI.1b), His-tagged MBP fusion (domain or fragment)
stoichiometry N [3]: 2

RHDV GI.2 P domain loop-swap mutant L1´L4´L5´ (loops 1, 4 and 5 of GI.1b), His-tagged MBP fusion (domain or fragment)
stoichiometry N [4]: 2

RHDV GI.2 P domain loop-swap mutant L2´ (loop 2 of GI.1b), His-tagged MBP fusion (domain or fragment)
stoichiometry N [5]: 2

RHDV GI.2 P domain loop-swap mutant L3´ (loop 3 of GI.1b), His-tagged MBP fusion (domain or fragment)
stoichiometry N [6]: 2

RHDV GI.2 P domain loop-swap mutant L4´ (loop 4 of GI.1b), His-tagged MBP fusion (domain or fragment)
stoichiometry N [7]: 2

RHDV GI.2 P domain loop-swap mutant L4´L5´ (loops 4 and 5 of GI.1b), His-tagged MBP fusion (domain or fragment)
stoichiometry N [8]: 2

RHDV GI.2 P domain loop-swap mutant L5´ (loop 5 of GI.1b), His-tagged MBP fusion (domain or fragment)
stoichiometry N [9]: 2

RHDV GI.2 P domain mutant N387A, MBP fusion (domain or fragment)
stoichiometry N [10]: 2

RHDV GI.2 P domain mutant N387D, MBP fusion (domain or fragment)
stoichiometry N [11]: 2

RHDV GI.2 wild-type P domain of VP60 (isolate N-11), His-tagged MBP fusion (domain or fragment)
stoichiometry N [12]: 2
